B1: KRR1 small subunit processome component (Saccharomyces cerevisiae), P25586 (parent)
chain: MVSTHNRDKPWDTDDIDKWKIEEFKEEDNASGQPFAEESSFMTLFPKYRESYLKTIWNDVTRALDKHNIACVLDLVEGSMTVKTTRKTYDPAIILKARDLIKLLARSVPFPQAVKILQDDMACDVIKIGNFVTNKERFVKRRQRLVGPNGNTLKALELLTKCYILVQGNTVSAMGPFKGLKEVRRVVEDCMKNIHPIYHIKELMIKRELAKRPELANEDWSRFLPMFKKRNVARKKPKKIRNVEKKVYTPFPPAQLPRKVDLEIESGEYFLSKREKQMKKLNEQKEKQMEREIERQEERAKDFIAPEEEAYKPNQN
partner: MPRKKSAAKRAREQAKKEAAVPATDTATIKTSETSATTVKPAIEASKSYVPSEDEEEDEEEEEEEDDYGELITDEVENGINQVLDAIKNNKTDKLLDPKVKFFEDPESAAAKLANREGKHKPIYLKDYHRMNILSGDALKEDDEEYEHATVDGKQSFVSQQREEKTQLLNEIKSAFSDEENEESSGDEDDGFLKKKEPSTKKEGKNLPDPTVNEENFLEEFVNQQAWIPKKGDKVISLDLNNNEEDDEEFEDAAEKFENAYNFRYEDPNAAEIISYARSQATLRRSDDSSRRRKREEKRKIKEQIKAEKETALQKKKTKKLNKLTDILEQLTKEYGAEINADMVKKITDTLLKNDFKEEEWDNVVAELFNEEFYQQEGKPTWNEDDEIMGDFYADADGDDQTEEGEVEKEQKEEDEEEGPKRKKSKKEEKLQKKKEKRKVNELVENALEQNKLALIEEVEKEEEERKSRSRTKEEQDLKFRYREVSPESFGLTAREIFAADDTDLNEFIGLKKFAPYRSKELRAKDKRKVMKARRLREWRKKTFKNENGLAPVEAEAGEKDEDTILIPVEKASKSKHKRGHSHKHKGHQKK

Variants of: B1
Conditions: with kri1_yeast KRI1, P42846

| effect of a mutation on the interaction | Variant |
| --- | --- |
| decreasing interaction | F45L;L95S;R207G |
| decreasing interaction | K20E;K66N;C162R;D261A |
